Changes are numbered by the printed parent chain.
Assays:
[1] = target: IgG in human serum pool from 100 individuals
[2] = target: anti-drug antibodies (ADA) in human serum

B1: pCART239, a variant IdeZ polypeptide of the invention (protein)
chain: MDDYQRNATEAYAKEVPHQITSVWTKGVTPPEQFTQGEDVIHAPYLAHQGWYDITKAFNGKDDLLCGAATAGNMLHWWFDQNKTEIEAYLSKHPEKQKIIFRNQELFDLKAAIDTKDSQTNSQLFNYFRDKAFPNLSARQLGVMPDLVLDMFINGYYLNVFKTQSTDVNRPYQDKDKRGGIFDAVFTRGNQTTLLTARHDLKNKGLNDISTIIKQELTEGRALALSHTYANVSISHVINLWGADFNAEGNLEAIYVTDSDANASIGMKKYFVGINAHGHVAISAKKIEGENIGAQVLGLFTLSSGKDIWQKLSGGGHHHHHH
enzyme concentration at which intact IgG started to be digested, serum pool with 0.1 mg/ml pCART243 (SDS-PAGE) [1]: Intact IgG started to be digested already at 0.03 µg/ml | enzyme concentration at which scIgG are further digested into F(ab')2 and Fc fragments in serum pool (SDS-PAGE) [1]: approximately 1.9 µg/ml of enzyme | enzyme concentration for cleavage from IgG to scIgG in serum pool (SDS-PAGE) [1]: approximately 0.9 µg/ml of enzyme

B2: pCART243, an inactive variant IdeZ polypeptide (protein)
chain: B1 chain with C66G
restoration of pCART239 IgG cleavage activity in serum by 0.1 mg/ml inactive decoy (SDS-PAGE) [2]: should bind the inactivating ADA to the extent that the activity of pCART239 in serum is restored. This was shown to be the case
